± gives the uncertainty stated by the source.
B1: Mineralocorticoid receptor, residues 600 to 675; numbered along this chain, P08235 (parent)
chain: SKICLVCGDEASGCHYGVVTCGSCKVFFKRAVEGQHNYLCAGRNDCIIDKIRRKNCPACRLQKCLQAGMNLGARKS
B2: Membrane-associated guanylate kinase, WW and PDZ domain-containing protein 1, residues 352 to 401; numbered along this chain, Q96QZ7 (parent)
chain: TEELDSELELPAGWEKIEDPVYGIYYVDHINRKTQYENPVLEAKRKKQLE

Variants of: B1
Assay: abundance fitness (aPCA) (normalised: wild type 0, dead -1); higher = more abundant; growth selection in yeast, the domain comes from the species named
Details: Homo sapiens

Abundance fitness, by site and new letter:
I3: W -0.315 ± 0.053; M -0.192 ± 0.054; R -0.225 ± 0.035; H -0.11 ± 0.066; N -0.022 ± 0.072; T -0.164 ± 0.056; L -0.239 ± 0.043; S -0.128 ± 0.04; D -0.062 ± 0.085; Q -0.152 ± 0.05; Y -0.027 ± 0.071; E -0.146 ± 0.055; P -0.453 ± 0.06; V -0.166 ± 0.041; F -0.04 ± 0.12; K -0.196 ± 0.057; C -0.172 ± 0.073; A -0.157 ± 0.044; G -0.162 ± 0.04
G17: H -0.208 ± 0.15; W -0.169 ± 0.062; Q -0.065 ± 0.06; I -0.24 ± 0.16; E -0.007 ± 0.055; F -0.121 ± 0.086; N -0.126 ± 0.094; T -0.073 ± 0.064; K -0.054 ± 0.066; A -0.108 ± 0.043; S -0.044 ± 0.045; L -0.142 ± 0.042; M -0.055 ± 0.057; D -0.031 ± 0.086; V -0.228 ± 0.05; C -0.049 ± 0.1; R -0.046 ± 0.04; P -0.175 ± 0.083
V18: M -0.233 ± 0.25; P -0.157 ± 0.062; D -0.155 ± 0.092; H -0.333 ± 0.13; F -0.274 ± 0.098; L -0.06 ± 0.044; I 0.045 ± 0.22; C 0.112 ± 0.061; Q -0.15 ± 0.067; K -0.101 ± 0.22; G -0.117 ± 0.042; E -0.202 ± 0.06
G13: Y -0.259 ± 0.1; M -0.035 ± 0.046; S -0.033 ± 0.05; H -0.016 ± 0.064; A -0.111 ± 0.042; K 0.019 ± 0.064; R 0.028 ± 0.043; W -0.268 ± 0.065; C -0.407 ± 0.094; V -0.092 ± 0.04; L -0.073 ± 0.04; Q 0.032 ± 0.053; F -0.047 ± 0.085; P -0.157 ± 0.061; N 0.043 ± 0.1; T 0.016 ± 0.059; I -0.146 ± 0.091
K2: S -0.161 ± 0.051; G -0.163 ± 0.042; R -0.083 ± 0.041; H -0.109 ± 0.078; A -0.066 ± 0.048; Q 0.118 ± 0.067; N 0.002 ± 0.061; F -0.267 ± 0.18; Y -0.085 ± 0.098; T -0.049 ± 0.06; V -0.142 ± 0.043; M -0.075 ± 0.055; I -0.041 ± 0.065; E -0.072 ± 0.057; W -0.246 ± 0.063; D -0.062 ± 0.063; L -0.099 ± 0.049
C14: A -0.027 ± 0.046; E -0.012 ± 0.058; Y -0.069 ± 0.11; F -0.146 ± 0.12; N -0.047 ± 0.11; P -0.072 ± 0.074; R -0.062 ± 0.041; V -0.008 ± 0.044; L -0.103 ± 0.048; H -0.003 ± 0.092; D -0.011 ± 0.093; W -0.049 ± 0.05; M 0.015 ± 0.06; T -0.09 ± 0.05; Q 0.013 ± 0.054; G -0.077 ± 0.055
H15: A -0.062 ± 0.045; E -0.033 ± 0.059; T -0.11 ± 0.052; C -0.152 ± 0.078; R -0.136 ± 0.039; W 0.029 ± 0.056; P -0.066 ± 0.065; M -0.059 ± 0.055; D -0.119 ± 0.073; V -0.103 ± 0.045; K 0.032 ± 0.063; I -0.131 ± 0.11; Q -0.12 ± 0.056; L -0.096 ± 0.043; F 0.023 ± 0.1; S -0.075 ± 0.053; Y -0.057 ± 0.085; N -0.092 ± 0.09
S1: G -0.087 ± 0.06; H 0.002 ± 0.26; W -0.144 ± 0.073; F -0.048 ± 0.1; R -0.099 ± 0.052; I -0.035 ± 0.11; V 0.018 ± 0.056; M -0.06 ± 0.074; Y 0 ± 0.089; A -0.136 ± 0.063; L -0.099 ± 0.062; P -0.13 ± 0.09; K -0.123 ± 0.1; D -0.406 ± 0.32
G8: S -0.057 ± 0.055; Q -0.095 ± 0.061; R -0.043 ± 0.039; L -0.08 ± 0.045; E -0.075 ± 0.087; N -0.235 ± 0.14; V -0.621 ± 0.078; A 0.058 ± 0.048; H -0.273 ± 0.16; C -0.233 ± 0.084; M -0.062 ± 0.07; K -0.019 ± 0.11; I -0.605 ± 0.25; T -0.079 ± 0.072; F -0.202 ± 0.096; W -0.27 ± 0.069; D -0.085 ± 0.09; Y -0.248 ± 0.17
D9: K -0.231 ± 0.078; W -0.214 ± 0.05; N -0.144 ± 0.1; S -0.102 ± 0.053; A 0.048 ± 0.049; F -0.202 ± 0.1; V -0.001 ± 0.042; Y -0.161 ± 0.092; Q -0.092 ± 0.072; T -0.082 ± 0.058; I -0.168 ± 0.15; R -0.183 ± 0.042; L -0.309 ± 0.05; E -0.096 ± 0.056; C -0.137 ± 0.084; H -0.04 ± 0.13; G -0.053 ± 0.042
A11: T -0.063 ± 0.064; D -0.134 ± 0.072; N 0.031 ± 0.078; H -0.13 ± 0.082; G -0.043 ± 0.039; P -0.001 ± 0.054; E -0.02 ± 0.057; K -0.101 ± 0.06; I -0.354 ± 0.14; S -0.044 ± 0.044; W -0.22 ± 0.056; M -0.135 ± 0.074; F -0.194 ± 0.15; C -0.123 ± 0.094; Y -0.245 ± 0.077; V -0.222 ± 0.047; L -0.16 ± 0.039; Q -0.037 ± 0.053; R -0.089 ± 0.041
E10: H 0.078 ± 0.13; D -0.018 ± 0.082; N -0.04 ± 0.12; W -0.012 ± 0.045; A -0.063 ± 0.045; T -0.032 ± 0.056; C -0.221 ± 0.083; R -0.1 ± 0.044; S -0.03 ± 0.047; G 0.043 ± 0.04; K 0.016 ± 0.057; I -0.188 ± 0.093; Y -0.105 ± 0.071; P -0.108 ± 0.071; M -0.177 ± 0.07; V -0.04 ± 0.044; Q 0.071 ± 0.054; L -0.028 ± 0.043
S12: A -0.132 ± 0.073; Q -0.019 ± 0.095; P -0.008 ± 0.067; R 0.004 ± 0.072; V -0.106 ± 0.069; Y 0.096 ± 0.11; K -0.124 ± 0.13; F -0.173 ± 0.15; L 0.068 ± 0.062; I 0.043 ± 0.11; M 0.071 ± 0.074; D -0.238 ± 0.17; H -0.117 ± 0.14; C -0.142 ± 0.11; N 0.205 ± 0.29; W -0.191 ± 0.12; E 0.103 ± 0.11; G -0.181 ± 0.074
C7: S -0.96 ± 0.27; A -0.933 ± 0.2; V -0.998 ± 0.26; R -0.886 ± 0.18; Y -0.805 ± 0.26; W -0.765 ± 0.2; H -0.802 ± 0.46; T -0.999 ± 0.42; L -1.15 ± 0.49
C4: T -0.837 ± 0.12; H -0.77 ± 0.21; E -0.727 ± 0.11; G -0.842 ± 0.1; S -0.851 ± 0.14; N -1.04 ± 0.37; I -0.808 ± 0.2; F -0.753 ± 0.26; W -1.06 ± 0.27; K -0.87 ± 0.23; Q -0.812 ± 0.19; P -0.986 ± 0.27; Y -0.99 ± 0.42; V -0.989 ± 0.24; M -0.96 ± 0.19; D -0.549 ± 0.15; L -0.768 ± 0.1; A -1.37 ± 0.35
L5: H -0.239 ± 0.07; R -0.091 ± 0.042; D -0.168 ± 0.082; T -0.037 ± 0.044; K 0.057 ± 0.067; A -0.05 ± 0.041; P -0.075 ± 0.06; W -0.106 ± 0.052; E -0.071 ± 0.089; S -0.075 ± 0.04; Y -0.076 ± 0.071; C -0.069 ± 0.057; Q 0.05 ± 0.069; M -0.133 ± 0.058; V -0.209 ± 0.041; I -0.089 ± 0.08; F -0.027 ± 0.075; N -0.068 ± 0.078
V6: A -0.051 ± 0.043; G -0.726 ± 0.093; C -0.228 ± 0.071; P -0.704 ± 0.13; I 0.008 ± 0.078; Y -0.489 ± 0.13; K -0.83 ± 0.23; S -0.512 ± 0.072; T -0.148 ± 0.06; L -0.375 ± 0.047; Q -0.803 ± 0.28; N -0.706 ± 0.45; M -0.416 ± 0.09; R -0.971 ± 0.16; D -0.765 ± 0.45
Y16: T -0.027 ± 0.049; L -0.104 ± 0.039; V 0.013 ± 0.043; W 0.024 ± 0.053; F -0.053 ± 0.093; S -0.097 ± 0.049; A -0.039 ± 0.046; R -0.075 ± 0.039; G -0.061 ± 0.048; I -0.213 ± 0.099; C -0.054 ± 0.083; D -0.025 ± 0.099; H -0.022 ± 0.082; Q -0.068 ± 0.057; K -0.081 ± 0.057; N -0.147 ± 0.11; P -0.125 ± 0.069

Variants of: B2
Assay: as above
Details: Homo sapiens

Abundance fitness of substitutions, site by site:
E50: Q -0.438 ± 0.18; V -0.332 ± 0.11; W 0.058 ± 0.38; R -0.841 ± 0.23; C 0.327 ± 0.43; L -0.223 ± 0.18; K -0.264 ± 0.22; D 0.006 ± 0.1; A 0.032 ± 0.064; I -0.273 ± 0.33; H -0.699 ± 0.28; S -0.321 ± 0.11; T -0.174 ± 0.046
Q48: W -0.26 ± 0.075; M 0.001 ± 0.042; P -0.528 ± 0.077; R -0.227 ± 0.052; Y -0.152 ± 0.052; T -0.17 ± 0.051; L -0.279 ± 0.055; N 0.107 ± 0.047; S -0.035 ± 0.049; V -0.115 ± 0.048
L49: P -0.049 ± 0.064; H -0.073 ± 0.11; F -0.328 ± 0.12; N -0.222 ± 0.24; W -0.239 ± 0.043; Y -0.048 ± 0.089; V -0.138 ± 0.063; A -0.003 ± 0.046; K -0.002 ± 0.083; E 0.132 ± 0.066; I -0.232 ± 0.14; T -0.002 ± 0.05; M 0.154 ± 0.065

Source: the Human Domainome abundance scans (Beltran et al. 2025)
